The text below walks through data of paper PMC9821441, “Quick and Spontaneous Transformation between [3Fe–4S] and [4Fe–4S] Iron–Sulfur Clusters in the tRNA-Thiolation Enzyme TtuA” (International Journal of Molecular Sciences, 2023).

The target of the test is T1, [4Fe–4S]-TtuA (tRNA-thiolation enzyme TtuA from Thermus thermophilus HB27, reconstituted with a [4Fe–4S] … (Thermus thermophilus (HB27 strain), UniProt Q72LF3 1-321).
T1 construct: TtuA, tRNA-thiolation enzyme, Thermus thermophilus HB27; Carries a [4Fe–4S] cluster with the unique (non-cysteine-chelated) Fe; same polypeptide as m2, only the cofactor differs; also called TthTtuA; reconstituted TtuA; source: [4Fe–4S] reconstituted with DTT, FeCl3 and Na2S
T1 sequence (looked up): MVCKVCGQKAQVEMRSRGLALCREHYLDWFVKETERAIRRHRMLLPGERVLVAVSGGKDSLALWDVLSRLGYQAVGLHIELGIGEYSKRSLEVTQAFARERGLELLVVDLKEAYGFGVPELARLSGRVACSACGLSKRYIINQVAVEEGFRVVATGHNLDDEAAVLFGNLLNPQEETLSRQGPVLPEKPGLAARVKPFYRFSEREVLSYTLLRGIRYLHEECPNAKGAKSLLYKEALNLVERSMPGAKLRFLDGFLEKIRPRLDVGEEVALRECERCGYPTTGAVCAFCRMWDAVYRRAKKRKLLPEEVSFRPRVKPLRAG
The test can be described thus: EPR spectroscopy; TtuA mixed with TtuB–COSH to a final concentration of 0.5 mM, 25 °C for 5 min, strictly anaerobic; then 5-fold molar excess dithionite, 25 °C for 10 min, frozen; CW X-band EPR (~9.59 GHz) at 12 K for [4Fe–4S]1+ and 40 K for [3Fe–4S]1+; reads the Fe–S cluster only. Conditions: both partners purified.

B1: TtuB–COSH (sulfur donor protein TtuB from Thermus thermophilus HB27 with a C-terminal thiocarboxylate) (natural protein, Thermus thermophilus (HB27 strain), UniProt Q72LF4 1-65, looked up)
chain: MRVVLRLPERKEVEVKGNRPLREVLEELGLNPETVVAVRGEELLTLEDEVREEDTLEVLSAISGG
modifications: not fully specified (C-terminus)
notes: TtuB, sulfur donor (sulfur carrier) protein, Thermus thermophilus HB27; source: E. coli B834 (DE3), pTYB1, purified on chitin resin; intein cleaved with 50 mM ammonium sulfide; not shown: intein, C-terminal, cleaved
On to B1, for which the binding result is reported as “binds”.
